# Measurements reported in the Immune Epitope Database (IEDB).
# Experiments:
# [1] = target: HLA-A*23:01; assay: IEDB peptide-MHC binding, purified MHC/direct/fluorescence; filed as Kd, often an IC50 or EC50 that approximates it; ≥ and ≤ were set here for values at or beyond the usual limits of such assays
# [2] = target: HLA-A*02:12; assay: as above
# [3] = target: HLA-A*24:03; assay: as above
# [4] = target: HLA-A*02:03; assay: as above
# [5] = target: HLA-B*27:05; assay: as above; settings: source organism: Ebola virus - Gabon (1994-1997)
# [6] = target: HLA-A*02:19; assay: as above
# [7] = target: HLA-A*02:16; assay: as above; settings: source organism: Zaire ebolavirus
# [8] = target: HLA-A*68:02; assay: as above
# [9] = target: HLA-A*29:02; assay: as above
# [10] = target: HLA-A*02:11; assay: as above
# [11] = target: HLA-B*15:01; assay: IEDB peptide-MHC binding, purified MHC/competitive/fluorescence; filed as Kd, often an IC50 or EC50 that approximates it; ≥ and ≤ were set here for values at or beyond the usual limits of such assays
# [12] = target: HLA-B*51:01; assay: as above
# [13] = target: HLA-A*69:01; assay: as above
# [14] = target: HLA-B*15:17; assay: as above
# [15] = target: HLA-B*46:01; assay: as above
# [16] = target: HLA-B*57:01; assay: as above
# [17] = target: HLA-A*02:01; assay: as above
# [18] = target: HLA-A*26:01; assay: as above
# [19] = target: HLA-B*18:01; assay: as above
# [20] = target: HLA-B*39:01; assay: as above
# [21] = target: HLA-A*03:01; assay: IEDB peptide-MHC binding, purified MHC/direct/fluorescence; filed as Kd, often an IC50 or EC50 that approximates it; ≥ and ≤ were set here for values at or beyond the usual limits of such assays
# [22] = target: HLA-A*01:01; assay: as above; settings: source organism: Reston ebolavirus - Reston
# [23] = target: HLA-B*27:03; assay: IEDB peptide-MHC binding, purified MHC/competitive/fluorescence; filed as Kd, often an IC50 or EC50 that approximates it; ≥ and ≤ were set here for values at or beyond the usual limits of such assays
# [24] = target: HLA-B*15:02; assay: as above
# [25] = target: HLA-A*11:01; assay: IEDB peptide-MHC binding, purified MHC/direct/fluorescence; filed as Kd, often an IC50 or EC50 that approximates it; ≥ and ≤ were set here for values at or beyond the usual limits of such assays; settings: source organism: Entamoeba histolytica
# [26] = target: HLA-B*83:01; assay: IEDB peptide-MHC binding, purified MHC/competitive/fluorescence; filed as Kd, often an IC50 or EC50 that approximates it; ≥ and ≤ were set here for values at or beyond the usual limits of such assays; settings: source organism: Entamoeba histolytica
# [27] = target: HLA-A*32:07; assay: as above; settings: source organism: Entamoeba histolytica
# [28] = target: HLA-B*15:42; assay: as above; settings: source organism: Entamoeba histolytica
# [29] = target: HLA-A*31:01; assay: as above; settings: source organism: Entamoeba histolytica
# [30] = target: HLA-B*45:06; assay: as above; settings: source organism: Entamoeba histolytica
# [31] = target: HLA-A*03:01; assay: as above; settings: source organism: Zaire ebolavirus
# [32] = target: HLA-C*15:02; assay: IEDB peptide-MHC binding, purified MHC/direct/fluorescence; filed as Kd, often an IC50 or EC50 that approximates it; ≥ and ≤ were set here for values at or beyond the usual limits of such assays; settings: source organism: Human immunodeficiency virus type 1 (Z-84 ISOLATE)
# [33] = target: HLA-A*02:19; assay: IEDB peptide-MHC binding, purified MHC/competitive/fluorescence; filed as Kd, often an IC50 or EC50 that approximates it; ≥ and ≤ were set here for values at or beyond the usual limits of such assays; settings: source organism: Human immunodeficiency virus type 1 (Z-84 ISOLATE)
# [34] = target: HLA-A*02:16; assay: as above; settings: source organism: Human immunodeficiency virus type 1 (Z-84 ISOLATE)
# [35] = source organism: Zaire ebolavirus
# [36] = source organism: Reston ebolavirus
# [37] = source organism: Vibrio vulnificus CMCP6
# [38] = source organism: Human immunodeficiency virus type 1 (Z-84 ISOLATE)
sequence,measurement,setting,value
GRYNLISPK,Kd,[1]; [35],≥ 20 µM
same,Kd,[2]; [35],≥ 20 µM
same,Kd,[3]; [35],≥ 20 µM
same,Kd,[4]; [35],≥ 20 µM
same,Kd,[5],0.0746 µM
same,Kd,[6]; [35],≥ 20 µM
same,Kd,[7],≥ 20 µM
same,Kd,[8]; [35],≥ 20 µM
same,Kd,[9]; [35],≥ 20 µM
same,Kd,[10]; [35],≥ 20 µM
same,Kd,[11]; [35],≥ 20 µM
same,Kd,[12]; [35],≥ 20 µM
same,Kd,[13]; [35],≥ 20 µM
same,Kd,[14]; [35],≥ 20 µM
same,Kd,[15]; [35],≥ 20 µM
same,Kd,[16]; [35],≥ 20 µM
same,Kd,[17]; [35],≥ 20 µM
same,Kd,[18]; [35],≥ 20 µM
same,Kd,[19]; [35],≥ 20 µM
same,Kd,[20]; [35],≥ 20 µM
ITDEINQIK,Kd,[21]; [36],≥ 20 µM
same,Kd,[1]; [36],≥ 20 µM
same,Kd,[2]; [36],≥ 20 µM
same,Kd,[3]; [36],≥ 20 µM
same,Kd,[4]; [36],≥ 20 µM
same,Kd,[22],≥ 20 µM
same,Kd,[6]; [36],≥ 20 µM
same,Kd,[8]; [36],≥ 20 µM
same,Kd,[9]; [36],≥ 20 µM
same,Kd,[10]; [36],≥ 20 µM
same,Kd,[11]; [36],≥ 20 µM
same,Kd,[23]; [36],≥ 20 µM
same,Kd,[12]; [36],≥ 20 µM
same,Kd,[13]; [36],≥ 20 µM
same,Kd,[14]; [36],≥ 20 µM
same,Kd,[15]; [36],≥ 20 µM
same,Kd,[16]; [36],≥ 20 µM
same,Kd,[17]; [36],≥ 20 µM
same,Kd,[18]; [36],≥ 20 µM
same,Kd,[19]; [36],≥ 20 µM
same,Kd,[20]; [36],≥ 20 µM
NMQESSKSF,Kd,[24]; source organism: Orientia tsutsugamushi str. Ikeda,0.0643 µM
NTFAAWLPM,Kd,[24]; source organism: Giardia lamblia ATCC 50803,0.193 µM
PYWQGIWDK,Kd,[1]; [37],0.006 µM
same,Kd,[3]; [37],0.013 µM
RMYWGVNPK,Kd,[21]; source organism: Entamoeba histolytica,0.0014 µM
same,Kd,[25],0.0016 µM
same,Kd,[26],≥ 5 µM
same,Kd,[27],0.0139 µM
same,Kd,[28],≥ 5 µM
same,Kd,[29],≤ 0.001 µM
same,Kd,[30],≥ 5 µM
SLLHESTLK,Kd,[1]; [35],≥ 20 µM
same,Kd,[2]; [35],≥ 20 µM
same,Kd,[3]; [35],≥ 20 µM
same,Kd,[4]; [35],≥ 20 µM
same,Kd,[6]; [35],≥ 20 µM
same,Kd,[7],≥ 20 µM
same,Kd,[8]; [35],≥ 20 µM
same,Kd,[9]; [35],≥ 20 µM
same,Kd,[10]; [35],≥ 20 µM
same,Kd,[11]; [35],≥ 20 µM
same,Kd,[31],0.0241 µM
same,Kd,[23]; [35],≥ 20 µM
same,Kd,[12]; [35],≥ 20 µM
same,Kd,[13]; [35],≥ 20 µM
same,Kd,[14]; [35],≥ 20 µM
same,Kd,[15]; [35],≥ 20 µM
same,Kd,[16]; [35],≥ 20 µM
same,Kd,[17]; [35],≥ 20 µM
same,Kd,[18]; [35],≥ 20 µM
same,Kd,[19]; [35],≥ 20 µM
same,Kd,[20]; [35],≥ 20 µM
WLRAMPPRM,Kd,[24]; source organism: Vibrio vulnificus YJ016,≥ 20 µM
YIKIFIMIV,Kd,[32],≥ 20 µM
same,Kd,[13]; [38],≥ 20 µM
same,Kd,[33],≥ 20 µM
same,Kd,[34],≥ 20 µM
same,Kd,[17]; [38],≥ 20 µM
